In the DeepSol protein solubility set:

Test: soluble on expression in E. coli; label from the status in PepcDB or PDB records

Soluble on expression in E. coli, soluble:
GPGSMAAMASRALISSPSHLLQKFDSCRTIFMCCDIQEKLRNRIPNFQAAVDVSNSMATIHNTLTPKHSTFVVTEQYPKGVGHVAKDITLPEGTPVIEKLQPSMLVPEMMPYIDGDAARGILPVQQAVLWGHETHVCVLQTADELLSRNIRVAVLVDGCASQQQLDHDVAIQEMAGWENLTLTTTISVLLQLSRGDRWIRGALMKVVKPKWADPSRFPSLPADGERPKA
MVAESNSAVAPTANVATSPAHEHFVRVNGGHFELQGKPYVITGVNMWYAAYLGAPNEVGDRDRLAKELDNLKAIGVNNLRVLAVSEKSEINSAVKPAVTNGFGNYDETLLQGLDYLLVELAKRDMTVVLYFNNFWQWSGGMTQYMAWIEGEPVQDPNVTNEWEAFMAKSASFYRSEKAQQEYRKTLEKIITRVNSINGKAYVDDATIMSWQLANEPRPGNSQTTAEEKQIYIDWVHAAAAYIKTLDAHHLVSSGSEGEMGSVNDMQVFIDAHATPDIDYLTYHMWIRNWSWFDKTKPAETWPSAWEKAQNYMRAHIDVAKQLNKPLVLEEFGLDRDMGSYAMDSTTEYRDNYFRGVFELMLASLEQGEPSAGYNIWAWNGYGRTTRANYWWQEGDDFMGDPPQEEQGMYGVFDTDTSTIAIMKEFNARFQPKLEHHHHHH
MIYGILSKNLGMPTPTFLVCPDVVKFENVGQIAVVNGMVYLGGSVGIDKSGTLHKGLEEQTRQTFDNIRKCLEYANSGLDYIVSLNIFLSTSLSDSEEARFNELYREVFCVPATRPCRCCVRAQLQEGLLVEVVNVVAAQK
MAFELSPSDLEPLLQGACFFGSGGGGTMISARHLAANFRKGDYYPTDKVRVVDVDEATDGDCVMVAYMGAPDAINQVQWPNGPVEAALAARQRLESQGRKLAYVVAPESGALGFVVASLVAAKLGLAVVDADGAGRAVPSLPMLTYAAAGVPPTPAFLAGESGLCVELGVRMPPPDGQRREDISTVVEQMLRPILTNPQFGQFGGLAMWMMSPAQLGGALPVRGTLSRALKLGRALQDGKVKTAEAMLDFLRRELDIKGKLLFGPATLASSEVSTAGGFDLGKVVLEDGERRCTVLYQNESLLAWDSALSHPLATAPDAISYFVEGEGQHVFSNGDLSGNDHGLDPSVRGRKAAVIALPAAAPLSEGLILQSFADELAQLGYLGPYAPVDAGREGARLEHHHHHH
MNYGFVKVAAAVPRVKVADCKFNSERLEGLITIAEGKGVQILTFPEMCITGYTCGDLFAQQLLLEQAEMALIQILNSTRQLDIISILGMPVVVNSTVINAAVVIQKGKILGVVPKTYLPNYKEFYEQRWFTSALQVSENSVRLCGQIVPMGNNLLFETAETTFGIEICEDLWATVPPSSSLALQGAEIIFNLSADDEGIGKHNYLCSLISQQSARCISGYVFSSSGFGESTTDVVFAGNGLIYENGYLLARSERFCMEEQLIINEIDVECIRAERRVNTTFAANKANCPGKEAVRISTEFVNSKDLNLTRTFNPHPFVPQGNELNSRCEEIFSIQIAGLAQRLLHTGAKTAVIGISGGLDSTLALLVCVKTFDKLGLSRKDILGITMPGFGTTDRTYHNAIDLMNSLGVSIREISIREACIQHFKDIGHDLNIHDVTYENSQARERTQILMDIANQTWGMVIGTGDLSELALGWATYNGDHMSMYGVNAGIPKTLVKHLVQWVAENGMDETSKATLLDIVDTPISPELIPADELEHHHHHH
MDYLVKALAYDGKVRAYAARTTDMVNEGQRRHGTWPTASAALGRTMTASLMLGAMLKGDDKLTVKIEGGGPIGAIVADANAKGEVRAYVSNPQVHFDLNEQGKLDVRRAVGTNGTLSVVKDLGLREFFTGQVEIVSGELGDDFTYYLVSSEQVPSSVGVGVLVNPDNTILAAGGFIIQLMPGTDDETITKIEQRLSQVEPISKLIQKGLTPEEILEEVLGEKPEILETMPVRFHCPCSKERFETAILGLGKKEIQDMIEEDGQAEAVCHFCNEKYLFTKEELEGLRDQTTR

Soluble on expression in E. coli, not soluble:
MRPPPFPKPAHPEEALALQRALAKKVRLAGSLEGVRRIAALDASHKRGRPLVAVALLYDLEKGPLHVATALLPEEALFPYVPGLLSFREAPAYLEALAALPEAPEALLVDGQGVAHPRGLGIASHLGVHLDLPSVGVAKRLLYGRPEAPLPEEKGAAVRLLAPDGRPLGYVYRSRTGVKPLYVSPGHRVGLEEALRFVRRLPTRFRLPEPLRLAHLEAGRALKALDAAALEHHHHHH
MKLSTSLEMPFRESTDPICSVCNFSSLIAPHFGGLVCSACASFFRRTVALNIHYLCKKDNQCKGMRKNCRACRFESCVKIAGMKRSLVKERKNLNNIPLYILNRRNETGNQGVVRAFVSSNQNRLENRLSLSPLTELPINDEMDVSKILKTTPSSLLKYYVEQVSHGKQFYMNTLNIRTKEELFEIVSYQSKVAAETCRTCPGVDLLDNRDILILRKYFQFSNIWIESTWKYWFSNDFSNDTEKFDIKLMEFIGQVKSTLLISLSRLKFNIFEFTAFKAICIWKLVYHETSRAMKIVAQEHYEGVTKALISYYQTYTLLDSMEIAIRVGEITLLVSSVFQMYHDMAKLYLHMGLPF
MSFKDFSFEFNGEPIHFSITSHPDKDLVHFNSTGRIGQVIEVIQPPEILSSQLSDQQRVEYELKSLLGNPELPGVELFIRRFVIHFAGTNQRKSALFVFGIDLDGIPNECIAAALQALEENH
MAHHHHHHMSESPMCLFIACSTRDNTSREYIYTILKNRLLGSHVCIDTNILDVPTNLKFCSFDDLLKCADDLQKYDSYAYGCLKKIEKLAKEYDENIELKIIYQRQHINIDQYIRRFTWDDAKYPRNRSLTDTIDVMVNNITKLSDEIHIKSSMLNDLKEKKKKDIPKTDTNNFFLKNLNEILTPQTVSQADFMETEYLTTLIAYIPKNSVDEWLASYEKFSQYVVPRSTEQFKGLVDKDGNTLWKVYVFKKFAESFKEAAKLKKFVVKSFKYDEQKYNDVMESRTKVEAEIIRQETFLRRMCLAAFSDIFSAFIHINILRVFCESVLRFGVPPNFASFSIRINGESKEKKVRKKLYDIFSSTDSIGKNYIKRSDENDEEIYPYVSVSFKI
LTSTLLRLSTDKIGAIIAIENQDSLESYVNIGYRVTSDFSPELLVTIFYNKQSPLHDGAVIVRDYQIVSVSSYFPMTRQLIDVSYGSRHRSALGLTEKCDAIVFIVSETTGKISVAVRGVIK
MGSDKIHHHHHHMQPETSAQYQHRFSQAIRGGEAADGLPQDRLNVYIRLIRNNIHSFIDRCYTETRQYFDSKEWSRLKEGFVRDARAQTPYFQEIPGEFLQYCQSLPLSDGILALMDFEYTQLLAEVAQIPDIPDIHYSNDSKYTPSPAAFIRQYRYDVTHDLQEAETALLIWRNAEDDVMYQTLDGFDMMLLEIMGSSALSFDTLAQTLVEFMPKADNWKNILLGKWSGWIEQRIIIPSLSAISENMEGNSPSQNHLSA
MGSDKIHHHHHHMKDTNRTHSADAATVEEALAADNHQGIVDSEGATALAMQNTLLTPRFYTTDFDEMDSLDVSSVREDWDTLIAQMKSDPNKGHFKKNEDWDSVDWDGMEPALKREFIDFLVSSCTAEFSGCVLYKEMKRRGNNEDIVTLFQLMARDEARHAGFINDALREAGIAVNLGFLTQKKKYTYFRPKFIYYATYLSEKIGYARYITIFRHLEANPEHRFHPIFKWFREWCNDEFSHGEAFALIMKSDPKFTQKWQNKLWIKFFLTAVYSTMYVRDHQRPVFHAALGVDPDWYAHEVFTKTSEITKQIFPITLDIENPRWQRGLEAMQRANVDLADAKANGKLFKRIGASIRAGAAFVNLFTIPANKHDAPASVRLEPAY
MMMDILMYLFETYVHSDADLQVDQDQLEDELLRAGFHQKDIYKALHWLEELAALQQTDAQTAIAKSAPTSMRIYAPEEIERLDLESRGFLLFLEHINVLTPETREMVIDRVMGLETDEFELDDLKWIILMVLFNVPGNENAYTVMEELLYSKEQGILH
MNDKEKIYNQLHHDAPIQIMPAPENLFVEYIEDGEVWYSPVVCIALSKAHNINFYDSDDVGCIDKAATCSIKKFNPETGEFEQFSKMAQKEITQ
MGSDKIHHHHHHMLTDHRCTKYTDCSSCSFYQRDIFKYRLYPKGYVIPQTRCMQNMVFFLVKGEIWLNSEEHPDTTFRGGQFVLQPIGSKVECKVLDYTECIIYLFERPQNICDNRFNKGISIVENERQQPIVMTMVPPIQLFIEGMKLYLNDDLRCSGLMQAKRSEMVYLLNCYYPIKELAAFYAPIYRYSHSFQYFVMQNYQKAKDVETFAQLGGYSVPTFRRIFKDTFGEPAYQWMLKRKCQDIHNDLIMTELSISEICYKYGFESLSNFSHFCRANFGQSPRSVRSLKDENT
